Experimental data: the supplement of paper PMC9112550, “Optimization of the antimicrobial peptide Bac7 by deep mutational scanning” (BMC Biology, 2022)

Tested on: Escherichia coli TOP10
Experiment: shrunken log2 fold change of peptide-encoding DNA abundance (4.5 h post-induction vs induction); higher = less antimicrobial activity (less host growth inhibition)
Settings: time post-induction: 4.5 h; library: site-saturation at positions 5, 18, 19, 20
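Also: peptides expressed intracellularly from a pBAD plasmid library in pooled LB shake-flask culture, induced with 0.3% L-arabinose, DNA abundance read by NGS, three biological replicates, DESeq2 with apeglm shrinkage.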

| Sequence | shrunken log2 fold change |
| --- | --- |
| RRIRIRPPRLPRPRPRPYAKPRP | -0.207 |
| RRIRTRPPRLPRPRPRPEDEPRP | 0.0995 |
| RRIRMRPPRLPRPRPRPYWEPRP | -0.0124 |
| RRIRLRPPRLPRPRPRPLMDPRP | -0.0257 |
| RRIRRRPPRLPRPRPRPCIIPRP | -0.474 |
| RRIRSRPPRLPRPRPRPVCYPRP | -0.268 |
| RRIRLRPPRLPRPRPRPDWDPRP | -0.183 |
| RRIRKRPPRLPRPRPRPDAEPRP | 1.59 |
| RRIRPRPPRLPRPRPRPKEHPRP | -0.202 |
| RRIRHRPPRLPRPRPRPFFQPRP | -0.202 |
| RRIRARPPRLPRPRPRPRFCPRP | 0.527 |
| RRIRNRPPRLPRPRPRPFHCPRP | -0.536 |
| RRIRFRPPRLPRPRPRPYEVPRP | -0.12 |
| RRIRWRPPRLPRPRPRPMCWPRP | 0.883 |
| RRIRWRPPRLPRPRPRPAYPPRP | 0.00826 |
| RRIRMRPPRLPRPRPRPWAYPRP | -0.012 |
| RRIRCRPPRLPRPRPRPQIQPRP | -0.288 |
| RRIRWRPPRLPRPRPRPYADPRP | -0.0623 |
| RRIRERPPRLPRPRPRPWGVPRP | -0.284 |
| RRIRPRPPRLPRPRPRPWWCPRP | -0.258 |
| RRIRTRPPRLPRPRPRPYVMPRP | -1.53 |
| RRIRFRPPRLPRPRPRPGLLPRP | 0.032 |
| RRIRVRPPRLPRPRPRPENKPRP | -0.134 |
| RRIRGRPPRLPRPRPRPTQQPRP | 0.94 |
| RRIRYRPPRLPRPRPRPKMRPRP | 0.198 |

| Sequence | shrunken log2 fold change |
| --- | --- |
| RRIRTRPPRLPRPRPRPFTPPRP | -0.0472 |
| RRIRHRPPRLPRPRPRPTRSPRP | -0.0409 |
| RRIRLRPPRLPRPRPRPDIAPRP | 0.024 |
| RRIRYRPPRLPRPRPRPSNQPRP | -0.273 |
| RRIRWRPPRLPRPRPRPVCVPRP | 0.193 |
| RRIRCRPPRLPRPRPRPEIMPRP | -0.0581 |
| RRIRCRPPRLPRPRPRPRAQPRP | 0.4 |
| RRIRGRPPRLPRPRPRPMWWPRP | 0.184 |
| RRIRGRPPRLPRPRPRPQDGPRP | 0.0108 |
| RRIRNRPPRLPRPRPRPYFHPRP | -0.474 |
| RRIRIRPPRLPRPRPRPLQYPRP | -0.591 |
| RRIRHRPPRLPRPRPRPWVRPRP | 0.0215 |
| RRIRLRPPRLPRPRPRPSRTPRP | -0.204 |
| RRIRYRPPRLPRPRPRPGWGPRP | -0.13 |
| RRIRPRPPRLPRPRPRPRFYPRP | 0.0111 |
| RRIRRRPPRLPRPRPRPRQTPRP | 0.0881 |
| RRIRCRPPRLPRPRPRPAQAPRP | 0.147 |
| RRIRDRPPRLPRPRPRPEMAPRP | 0.0683 |
| RRIRLRPPRLPRPRPRPRYWPRP | -0.0087 |
| RRIRWRPPRLPRPRPRPYGNPRP | -0.338 |
| RRIRYRPPRLPRPRPRPFRMPRP | -0.0929 |
| RRIRVRPPRLPRPRPRPQIPPRP | -0.298 |
| RRIRWRPPRLPRPRPRPRFMPRP | -0.17 |
| RRIRLRPPRLPRPRPRPECFPRP | 0.226 |
| RRIRWRPPRLPRPRPRPEPEPRP | 0.838 |

| Sequence | shrunken log2 fold change |
| --- | --- |
| RRIRFRPPRLPRPRPRPCHTPRP | -0.17 |
| RRIRFRPPRLPRPRPRPKGGPRP | 0.00425 |
| RRIRCRPPRLPRPRPRPDCEPRP | -0.0299 |
| RRIRGRPPRLPRPRPRPFQEPRP | 0.0152 |
| RRIRDRPPRLPRPRPRPNTYPRP | -0.127 |
| RRIRKRPPRLPRPRPRPNGQPRP | 0.203 |
| RRIRHRPPRLPRPRPRPHDQPRP | -0.104 |
| RRIRPRPPRLPRPRPRPKSPPRP | -0.12 |
| RRIRWRPPRLPRPRPRPHGRPRP | 0.0589 |
| RRIRSRPPRLPRPRPRPMENPRP | 0.0424 |
| RRIRQRPPRLPRPRPRPVCKPRP | 0.0434 |
| RRIRARPPRLPRPRPRPYNFPRP | -0.192 |
| RRIRDRPPRLPRPRPRPMCAPRP | 0.0829 |
| RRIRDRPPRLPRPRPRPECEPRP | 1.53 |
| RRIRSRPPRLPRPRPRPQDYPRP | -0.356 |
| RRIRLRPPRLPRPRPRPLFPPRP | -0.203 |
| RRIRHRPPRLPRPRPRPQVHPRP | -0.213 |
| RRIRLRPPRLPRPRPRPEEDPRP | -0.00133 |
| RRIRSRPPRLPRPRPRPHTAPRP | -0.175 |
| RRIRCRPPRLPRPRPRPFGPPRP | -0.283 |
| RRIRIRPPRLPRPRPRPSMPPRP | -0.339 |
| RRIRARPPRLPRPRPRPIICPRP | 0.106 |
| RRIRFRPPRLPRPRPRPIELPRP | -0.537 |
| RRIRKRPPRLPRPRPRPQPSPRP | 0.567 |
| RRIRFRPPRLPRPRPRPIYSPRP | -0.751 |

| Sequence | shrunken log2 fold change |
| --- | --- |
| RRIRCRPPRLPRPRPRPHSQPRP | -0.0293 |
| RRIRPRPPRLPRPRPRPWFNPRP | -0.541 |
| RRIRKRPPRLPRPRPRPQNCPRP | -0.132 |
| RRIRARPPRLPRPRPRPKAMPRP | 0.00028 |
| RRIRWRPPRLPRPRPRPLISPRP | -0.0451 |
| RRIRVRPPRLPRPRPRPDNKPRP | -0.581 |
| RRIRGRPPRLPRPRPRPRKPPRP | 0.399 |
| RRIRMRPPRLPRPRPRPSKKPRP | -0.0297 |
| RRIRKRPPRLPRPRPRPFAHPRP | -0.00992 |
| RRIRPRPPRLPRPRPRPLIYPRP | -0.457 |
| RRIRNRPPRLPRPRPRPRNIPRP | -0.168 |
| RRIRNRPPRLPRPRPRPIIGPRP | 0.0444 |
| RRIRVRPPRLPRPRPRPRHKPRP | 0.13 |
| RRIRTRPPRLPRPRPRPGRYPRP | 0.123 |
| RRIRIRPPRLPRPRPRPFRMPRP | -0.91 |
| RRIRPRPPRLPRPRPRPVHYPRP | -0.121 |
| RRIRDRPPRLPRPRPRPMWFPRP | 0.0563 |
| RRIRDRPPRLPRPRPRPWMVPRP | 0.333 |
| RRIRARPPRLPRPRPRPDQHPRP | 0.0116 |
| RRIRTRPPRLPRPRPRPMAIPRP | -0.00284 |
| RRIRCRPPRLPRPRPRPEEEPRP | 0.375 |
| RRIRFRPPRLPRPRPRPMWVPRP | -0.00617 |
| RRIRCRPPRLPRPRPRPVHPPRP | -0.375 |
| RRIRDRPPRLPRPRPRPIDQPRP | -0.0222 |
| RRIRGRPPRLPRPRPRPHYCPRP | 0.167 |

| Sequence | shrunken log2 fold change |
| --- | --- |
| RRIRFRPPRLPRPRPRPVSYPRP | 0.0168 |
| RRIRYRPPRLPRPRPRPKYPPRP | -0.0165 |
| RRIRIRPPRLPRPRPRPPCVPRP | -0.173 |
| RRIRERPPRLPRPRPRPPGWPRP | 0.467 |
| RRIRERPPRLPRPRPRPVPCPRP | -0.193 |
| RRIRRRPPRLPRPRPRPWHCPRP | -0.18 |
| RRIRHRPPRLPRPRPRPKAHPRP | -0.145 |
| RRIRLRPPRLPRPRPRPNYYPRP | -0.773 |
| RRIRNRPPRLPRPRPRPELEPRP | 0.47 |
| RRIRSRPPRLPRPRPRPDRMPRP | -0.129 |
| RRIRKRPPRLPRPRPRPSHLPRP | -0.124 |
| RRIRKRPPRLPRPRPRPTHVPRP | -0.305 |
| RRIRWRPPRLPRPRPRPDEWPRP | 0.253 |
| RRIRVRPPRLPRPRPRPCRDPRP | -0.4 |
| RRIRIRPPRLPRPRPRPFWTPRP | -0.353 |
| RRIRVRPPRLPRPRPRPVCEPRP | 0.206 |
| RRIRSRPPRLPRPRPRPKLPPRP | -0.0678 |
| RRIRYRPPRLPRPRPRPWSMPRP | -0.221 |
| RRIRLRPPRLPRPRPRPKVDPRP | -0.00247 |
| RRIRCRPPRLPRPRPRPWNAPRP | -0.129 |
| RRIRQRPPRLPRPRPRPLHYPRP | -0.269 |
| RRIRARPPRLPRPRPRPLLTPRP | 0.667 |
| RRIRNRPPRLPRPRPRPFMNPRP | -0.195 |
| RRIRPRPPRLPRPRPRPTNLPRP | -0.107 |
| RRIRRRPPRLPRPRPRPSKTPRP | -0.0865 |

| Sequence | shrunken log2 fold change |
| --- | --- |
| RRIRCRPPRLPRPRPRPRVYPRP | -0.217 |
| RRIRMRPPRLPRPRPRPLMEPRP | 1.68 |
| RRIRDRPPRLPRPRPRPMARPRP | 0.0954 |
| RRIRLRPPRLPRPRPRPLDMPRP | -0.358 |
| RRIRMRPPRLPRPRPRPENWPRP | 0.795 |
| RRIRFRPPRLPRPRPRPHAIPRP | 0.00598 |
| RRIRRRPPRLPRPRPRPCLSPRP | -0.114 |
| RRIRYRPPRLPRPRPRPFARPRP | -0.084 |
| RRIRQRPPRLPRPRPRPHPEPRP | 0.0615 |
| RRIRGRPPRLPRPRPRPMFEPRP | 0.688 |
| RRIRRRPPRLPRPRPRPPSEPRP | 0.974 |
| RRIRCRPPRLPRPRPRPTYVPRP | -0.259 |
| RRIRERPPRLPRPRPRPNFEPRP | -0.188 |
| RRIRHRPPRLPRPRPRPMTDPRP | -0.898 |
| RRIRVRPPRLPRPRPRPRSIPRP | 3.22 |
| RRIRFRPPRLPRPRPRPVMPPRP | -0.12 |
| RRIRLRPPRLPRPRPRPKVQPRP | 0.22 |
| RRIRIRPPRLPRPRPRPKGGPRP | 0.04 |
| RRIRDRPPRLPRPRPRPPGRPRP | 0.104 |
| RRIRFRPPRLPRPRPRPWWVPRP | 0.00262 |
| RRIRTRPPRLPRPRPRPGSKPRP | 0.0896 |
| RRIRKRPPRLPRPRPRPFTTPRP | -0.243 |
| RRIRHRPPRLPRPRPRPAPPPRP | 0.854 |
| RRIRYRPPRLPRPRPRPISMPRP | 0.0342 |
| RRIRSRPPRLPRPRPRPFCMPRP | -0.324 |
